Where a SMILES comes first, the peptide text is derived from it. Bridges are numbered along the chain shown (N, C = ends). The star is where a group is joined. X1 = CC1=CC(C)(C)N(CCCS(=O)(=O)O)c2cc3c(cc21)/C(=C/C=C/C1=[N+](CCCS(=O)(=O)O)c2ccc(S(=O)(=O)[O-])cc2C1(C)CCCC(=O)*)C=C(C(C)(C)C)O3

The data set is described as follows: Limited acute dose toxicity study in male rats. Format: in vivo, rat. The protocol: A limited acute dose toxicity study was conducted to investigate the tolerance of Compound 6 at 100 times the preclinical imaging dose (50 nmol/kg body weight). The compound was injected intravenously in male rats, and the animals were sacrificed at 1, 14, 21 and 28 days post injection (p.i.). At necropsy, the major organs were inspected for gross pathology, and the kidneys were taken into neutral buffered formalin for subsequent histomorphological evaluation. A weak blue colouration of the skin and a moderate blue colouration of the urine were observed immediately after injection, which disappeared within 1 day p.i. […] The other minor changes seen were incidental and common in young adult laboratory rats. Strong fluorescence staining of blood vessels in the kidney was observed on day 1 p.i.

Turning to `CC(=O)N[C@@H](C)C(=O)NCC(=O)N[C@@H](CO)C(=O)N[C@H]1CSSC[C@@H](C(=O)N[C@@H](Cc2ccc(O)cc2)C(=O)N[C@@H](CCC(=O)O)C(=O)N[C@H](C(=O)N[C@@H](CCC(=O)O)C(=O)NCC(=O)N[C@H](C(=O)NCC(=O)NCC(=O)NCC(=O)N[C@@H](CCCCNC(=O)CCCC2(C)C(/C=C/C=C3\C=C(C(C)(C)C)Oc4cc5c(cc43)C(C)=CC(C)(C)N5CCCS(=O)(=O)O)=[N+](CCCS(=O)(=O)O)c3ccc(S(=O)(=O)[O-])cc32)C(N)=O)[C@@H](C)O)[C@@H](C)O)NC(=O)[C@H](Cc2c[nH]c3ccccc23)NC(=O)[C@@H]2CSSC[C@H](NC(=O)[C@H](Cc3ccc(O)cc3)NC1=O)C(=O)N[C@@H](CO)C(=O)NCC(=O)N1CCC[C@H]1C(=O)N1CCC[C@H]1C(=O)N[C@@H](CCCNC(=N)N)C(=O)N[C@@H](Cc1ccccc1)C(=O)N[C@@H](CCC(=O)O)C(=O)N2` (stereo partly drawn) [Compound 6] (Ac-AGSCYCSGPPRFECWCYETEGTGGGK(X1)-NH2; disulfide 4-16, 6-14), the “Tolerance of single intravenous administration” value (100 times the anticipated clinical dose) is “well tolerated and without any drug substance related adverse effects”. Besides, for the setting “day 1 p.i.”, the “Gross appearance of the kidneys at necropsy” value is listed as “diffusely green”. The “Time until blue colouration of skin and urine disappeared” value (i.v., weak blue colouration of skin, moderate of urine, immediately after injection) is on record as at most 1 day p.i.
